Consider one substance from PMC8085985.

This experiment addresses Fervidobacterium islandicum AW‐1 SufS family cysteine desulfurase (FiSufS) (Fervidobacterium islandicum AW-1). Kind of experiment: SEC. In general terms: In gel filtration, larger molecules generally elute earlier.

“Fervidobacterium islandicum AW‐1 SufS family cysteine desulfurase (FiSufS) (enzyme)” came in with a stoichiometry N of 2.

A word on the stoichiometry N: it is a count of units in the complex or per binding partner.
